{"source": "patent US20200362047A1", "about": "(CRESCENDO BIOLOGICS, published 2020)", "binders": {"B1": {"name": "Humabody VH 1.90 (VHH)", "VHH": "EVQLVESGGGLVQPGGSLRLSCAASGFTFSSHWMTWVRQAPGKGLEWVAHIKEDGSEKYYEDSVEGRFTVSRDNAKNSVYLQMNSLRAEDTAVYYCARGGDGYSDSHFGVDVWGQGTTVTVSS", "notes": "human single VH domain"}, "B2": {"name": "Humabody VH 1.105 (VHH)", "VHH": "EVQLVESGGGLVQPGGSLRLSCAASGFTFSSHWMTWFRQAPGKGLEWVAHIKEDESEKYYVDSVKGRFTISRDNAKNSLYLQMNSLRAEDTAVYYCARGGVGYSISHFGVDVWGQGTTVTVSS", "notes": "human single VH domain"}, "B3": {"name": "Humabody VH 1.92 (VHH)", "VHH": "EVQLVESGGGLVQPGGSLRLSCAASGFTFSSHWMTWFRQAPGKGLEWVAHIKEDGSEKYYEDSVKGRFTVSRDNAKNSVYLQMNSLRAEDTAVYYCARGGDGYSDSHFGVDVWGQGTTVTVSS", "notes": "human single VH domain"}, "B4": {"name": "Humabody VH 1.104 (VHH)", "VHH": "EVQLVESGGGLVQPGGSLRLSCAASGFTFSSHWMTWFRQAPGKGLEWVAHIKEDGSEKYYVDSVKGRFTISRDNAKNSLYLQMNSLRAEDTAVYYCARGGVGYSDSHFGVDVWGQGTTVTVSS", "notes": "human single VH domain"}, "B5": {"name": "Humabody VH 1.93 (VHH)", "VHH": "EVQLVESGGGLVQPGGSLRLSCAASGFTFSSHWMTWFRQAPGKGLEWVAHIKEDGSEKYYEDSVEGRFTISRDNAKNSVYLQMNSLRAEDTAVYYCARGGDGYSDSHFGVDVWGQGTTVTVSS", "notes": "human single VH domain"}, "B6": {"name": "Humabody VH 1.94 (VHH)", "VHH": "EVQLVESGGGLVQPGGSLRLSCAASGFTFSSHWMTWFRQAPGKGLEWVAHIKEDGSEKYYEDSVEGRFTVSRDNAKNSLYLQMNSLRAEDTAVYYCARGGDGYSDSHFGVDVWGQGTTVTVSS", "notes": "human single VH domain"}, "B7": {"name": "Humabody VH 1.100 (VHH)", "VHH": "EVQLVESGGGLVQPGGSLRLSCAASGFTFSSHWMTWFRQAPGKGLEWVAHIKEDESEKYYVDSVKGRFTISRDNAKNSLYLQMNSLRAEDTAVYYCARGGDGYSISHFGVDVWGQGTTVTVSS", "notes": "human single VH domain"}, "B8": {"name": "Humabody VH 1.99 (VHH)", "VHH": "EVQLVESGGGLVQPGGSLRLSCAASGFTFSSHWMTWFRQAPGKGLEWVAHIKEDESEKYYVDSVKGRFTISRDNAKNSLYLQMNSLRAEDTAVYYCARGGDGYSDSHFGVDVWGQGTTVTVSS", "notes": "human single VH domain"}, "B9": {"name": "Humabody VH 1.106 (VHH)", "VHH": "EVQLVESGGGLVQPGGSLRLSCAASGFTFSSHWMTWFRQAPGKGLEWVAHIKEDESEKYYVDSVKGRFTISRDNAKNSLYLQMNSLRAEDTAVYYCARGGEGYSISHFGVDVWGQGTTVTVSS", "notes": "human single VH domain"}, "B10": {"name": "Humabody VH 1.95 (VHH)", "VHH": "EVQLVESGGGLVQPGGSLRLSCAASGFTFSSHWMTWVRQAPGKGLEWVAHIKEDGSEKYYVDSVKGRFTISRDNAKNSLYLQMNSLRAEDTAVYYCARGGDGYSDSHFGVDVWGQGTTVTVSS", "notes": "human single VH domain"}, "B11": {"name": "Humabody VH 1.98 (VHH)", "VHH": "EVQLVESGGGLVQPGGSLRLSCAASGFTFSSHWMTWVRQAPGKGLEWVAHIKEDESEKYYVDSVKGRFTISRDNAKNSLYLQMNSLRAEDTAVYYCARGGEGYSISHFGVDVWGQGTTVTVSS", "notes": "human single VH domain"}, "B12": {"name": "Humabody VH 1.101 (VHH)", "VHH": "EVQLVESGGGLVQPGGSLRLSCAASGFTFSSHWMTWFRQAPGKGLEWVAHIKEGGSEKYYVDSVKGRFTISRDNAKNSLYLQMNSLRAEDTAVYYCARGGDGYSDSHFGVDVWGQGTTVTVSS", "notes": "human single VH domain"}, "B13": {"name": "Humabody VH 1.96 (VHH)", "VHH": "EVQLVESGGGLVQPGGSLRLSCAASGFTFSSHWMTWFRQAPGKGLEWVAHIKEDGSEKYYVDSVKGRFTISRDNAKNSLYLQMNSLRAEDTAVYYCARGGDGYSDSHFGVDVWGQGTTVTVSS", "notes": "human single VH domain"}, "B14": {"name": "Humabody VH 1.97 (VHH)", "VHH": "EVQLVESGGGLVQPGGSLRLSCAASGFTFSSHWMTWVRQAPGKGLEWVAHIKEDESEKYYVDSVKGRFTISRDNAKNSLYLQMNSLRAEDTAVYYCARGGVGYSISHFGVDVWGQGTTVTVSS", "notes": "human single VH domain"}, "B15": {"name": "Humabody VH 1.103 (VHH)", "VHH": "EVQLVESGGGLVQPGGSLRLSCAASGFTFSSHWMTWFRQAPGKGLEWVAHIKEDGSEKYYVDSVKGRFTISRDNAKNSLYLQMNSLRAEDTAVYYCARGGEGYSDSHFGVDVWGQGTTVTVSS", "notes": "human single VH domain"}, "B16": {"name": "Humabody VH 1.102 (VHH)", "VHH": "EVQLVESGGGLVQPGGSLRLSCAASGFTFSSHWMTWFRQAPGKGLEWVAHIKEEGSEKYYVDSVKGRFTISRDNAKNSLYLQMNSLRAEDTAVYYCARGGDGYSDSHFGVDVWGQGTTVTVSS", "notes": "human single VH domain"}, "B17": {"name": "Humabody VH 1.91 (VHH)", "VHH": "EVQLVESGGGLVQPGGSLRLSCAASGFTFSSHWMTWFRQAPGKGLEWVAHIKEDGSEKYYVDSVKGRFTVSRDNAKNSVYLQMNSLRAEDTAVYYCARGGDGYSDSHFGVDVWGQGTTVTVSS", "notes": "human single VH domain"}, "B18": {"name": "Humabody VH 2.41 (VHH)", "VHH": "EVQLVESGGGLVKPGGSLRLSCAASGFTFSDYYMSWFRQAPGKGLEWVSYISGSGDIIDYADSVKGRFTISRDNAKNSLYLQMNNLRAEDTAVYHCAREDSRLTGTTDFDNWGQGTLVTVSS", "notes": "human single VH domain"}, "B19": {"name": "Humabody VH 2.47 (VHH)", "VHH": "EVQLVESGGGLVKPGGSLRLSCAASGFTFSDYYMSWFRQAPGKGLEWVSYISGSGDIIDYADSVKGRFTISRDNAKNSLYLQMNSLRAEDTAVYYCAREDSRLTGTTDFDNWGQGTLVTVSS", "notes": "human single VH domain"}, "B20": {"name": "Humabody VH 2.45 (VHH)", "VHH": "EVQLVESGGGLVKPGGSLRLSCAASGFTFSDYYMSWFRQAPGKGLEWVSYISGSGDIIDYADSVKGRFTISRDNAKNSLYLQMNNLRAEDTAVYYCAREDSRLTGTTDFDNWGQGTLVTVSS", "notes": "human single VH domain"}, "B21": {"name": "Humabody VH 2.46 (VHH)", "VHH": "EVQLVESGGGLVKPGGSLRLSCAASGFTFSDYYMSWIRQAPGKGLEWVSYISGSGDIIDYADSVKGRFTISRDNAKNSLYLQMNSLRAEDTAVYYCAREDSRLTGTTDFDNWGQGTLVTVSS", "notes": "human single VH domain"}, "B22": {"name": "Humabody VH 2.48 (VHH)", "VHH": "EVQLVESGGGLVKPGGSLRLSCAASGFTFSDYYMSWIRQAPGKGLEWVSYISGSGDIIDYADSVKGRFTISRDNAKNSLYLQMNSLRAEDTAVYYCAREDARLTGTTDFDNWGQGTLVTVSS", "notes": "human single VH domain"}, "B23": {"name": "Humabody VH 2.49 (VHH)", "VHH": "EVQLVESGGGLVKPGGSLRLSCAASGFTFSDYYMSWIRQAPGKGLEWVSYISGSGDIIDYADSVKGRFTISRDNAKNSLYLQMNSLRAEDTAVYYCAREDPRLTGTTDFDNWGQGTLVTVSS", "notes": "human single VH domain"}, "B24": {"name": "Humabody VH 2.42 (VHH)", "VHH": "EVQLVESGGGLVKPGGSLRVSCAASGFTFSDYYMSWIRQAPGKGLEWVSYISGSGDIIDYADSVKGRFTISRDNAKNSLYLQMNNLRAEDTAVYHCAREDSRLTGTTDFDNWGQGTLVTVSS", "notes": "human single VH domain"}}}
{"molecular_target": "T1, human CD137 expressed on the surface of CHO cells (human, UniProt Q07011 24-255)", "T1 construct": "Also used for the Jurkat reporter cells that express human CD137 (functional rows); also called CHO human CD137 cells; CHO huCD137", "T1 sequence (Q07011 24-255 limits assumed)": "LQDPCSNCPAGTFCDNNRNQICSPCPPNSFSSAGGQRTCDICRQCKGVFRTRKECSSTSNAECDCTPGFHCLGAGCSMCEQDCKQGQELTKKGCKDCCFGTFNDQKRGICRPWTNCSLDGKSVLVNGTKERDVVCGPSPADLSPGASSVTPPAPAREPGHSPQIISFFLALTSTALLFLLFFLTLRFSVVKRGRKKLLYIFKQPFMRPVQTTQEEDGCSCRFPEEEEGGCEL", "assay": "FMAT ligand inhibition, CD137 Ligand on CHO human CD137 cells", "description": "In parallel to the binding assay, periplasmic extracts were tested for their ability to inhibit the interaction of human CD137 ligand protein with CHO human CD137 cells in an FMAT format. Total binding controls containing diluted periplasmic extract sample buffer and non-specific binding controls containing excess non-Fc tagged competitor were set up on each plate for data normalisation. Fluorescence signal was measured using the TTP Mirrorball and the FL2 median mean fluorescence intensity of gated used for the data normalisation. The data was expressed as a % of the total binding control (% control) after subtraction of the background signal determined from the non-specific binding control wells.\nThe ability of purified Humabody VH to inhibit the binding of CD137 Ligand to CHO human CD137 cells was measured in the FMAT ligand inhibition assay essentially as described in Example 6. VH inhibited the binding of human CD137 Ligand to human CD137.", "units": {"IC50": "nM"}}
{"binder": "B1", "IC50": 7.8}
{"binder": "B2", "IC50": 2.8}
{"binder": "B3", "IC50": 2.9}
{"binder": "B4", "IC50": 1.1}
{"binder": "B5", "IC50": 0.7}
{"binder": "B6", "IC50": 0.8}
{"binder": "B7", "IC50": 1.4}
{"binder": "B8", "IC50": 1.5}
{"binder": "B9", "IC50": 2.1}
{"binder": "B10", "IC50": 24}
{"binder": "B11", "IC50": 4.7}
{"binder": "B12", "IC50": 7.9}
{"binder": "B13", "IC50": 2.7}
{"binder": "B14", "IC50": 3.8}
{"binder": "B15", "IC50": 1.3}
{"binder": "B16", "IC50": 1.7}
{"binder": "B17", "IC50": 1.9}
{"binder": "B18", "IC50": 16}
{"binder": "B19", "IC50": 8.8}
{"binder": "B20", "IC50": 5.3}
{"binder": "B21", "IC50": 78}
{"binder": "B22", "IC50": 86}
{"binder": "B23", "IC50": 42}
{"binder": "B24", "IC50": 200}
